For the assay, the target named is Arabidopsis thaliana plasmodesmata-located protein 1 (PDLP1) fused to RFP (Arabidopsis thaliana) (UniProt Q8GXV7). As to the kind of experiment: FRET or BRET; FRET-FLIM: GFP on the MP as donor, RFP on PDLP1 as acceptor; co-expressed by agroinfiltration in N. benthamiana leaves, measured at spots in plasmodesmata; donor fluorescence lifetime by time-correlated single-photon counting. Background: In BRET a luciferase serves as donor, and the signal depends on an acceptor being close.
UniProt Q8GXV7, sequence (Q8GXV7 22-303): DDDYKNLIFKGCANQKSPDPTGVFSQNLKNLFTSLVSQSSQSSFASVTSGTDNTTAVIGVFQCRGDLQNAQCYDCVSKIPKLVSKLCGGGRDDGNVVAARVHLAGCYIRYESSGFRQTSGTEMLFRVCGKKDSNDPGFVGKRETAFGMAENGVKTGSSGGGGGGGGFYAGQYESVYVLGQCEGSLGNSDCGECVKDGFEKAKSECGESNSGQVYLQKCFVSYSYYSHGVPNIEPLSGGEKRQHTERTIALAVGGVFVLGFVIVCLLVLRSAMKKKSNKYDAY

The substance “cowpea mosaic virus (CPMV) movement protein (48K) fused at its C-terminus to GFP (natural protein)” returned an FRET efficiency of 7.5%.

For the substance “grapevine fanleaf virus (GFLV) 2B movement protein with GFP fused at its N-terminus (natural protein)”, the FRET efficiency was 6.7%.

Values taken from article PMC4987395.
